Measurements published in patent publication US20250127814A1 (UNIVERSITY OF CHICAGO, published 2025).
Substitutions are numbered along the chain they refer to.

Tests used:
[1] = molecular target: T1, Borealin C-terminal domain (207-280) (human, UniProt Q53HL2 207-280, biotinylated on the Avi-tag (co-expression with BirA)); test: SPR, His-tagged target on NTA chip, 2-fold dilutions of the Fab injected, 1:1 Langmuir fit [panel B, top]
T1 construct: range 207-280; The construct carries His- and Avi-tags; Expressed in E. coli; Immobilised via neutravidin (ELISA) or His-tag/NTA chip (SPR); also called Bor-C
T1 sequence (looked up): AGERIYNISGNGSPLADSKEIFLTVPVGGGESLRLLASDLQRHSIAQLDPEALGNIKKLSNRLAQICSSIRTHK
Procedure: (§1) The targets were immobilized onto a nitrilotriacetic acid (NTA) sensor chip via His-tag. 2-fold serial dilutions of the Fab were injected following ligand immobilization on the sensor chip. For each kinetic assay at least five dilutions of the Fab were tested. The data were fitted using 1:1 Langmuir Model to obtain the on-rate, off-rate and the affinity (KD) of the Fab-target interaction.

Sur-N = molecular target: T2, Sur-N; test: Western blot of recombinant CPC domains, Fab as primary reagent, anti-human F(ab')2 IgG-HRP [panel B]
T2 construct: Specificity lane in the Western blots; also called Survivin-N (N-term); Sur N: 1-120
T2 sequence (chain, as listed by the source limits assumed): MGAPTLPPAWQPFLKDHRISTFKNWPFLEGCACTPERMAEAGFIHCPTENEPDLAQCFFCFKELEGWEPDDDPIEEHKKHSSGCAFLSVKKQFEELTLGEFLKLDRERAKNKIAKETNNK
Procedure: (§2) Recombinant CPC targets Survivin-N(N-term), Borealin-N(N-term), Borealin-C(C-term) and INCENP-N(N-term) domains were run on SDS-PAGE and transferred into PVDF membrane. […] The assay was developed by using a secondary anti-human-F(ab′)2 IgG-HRP reagent
(§3) Membranes were stained with Ponceau S dye to verify correct transfer of the proteins, were briefly washed with ddH2O and blocked with 4% skimmed milk in TBS-T containing 0.05% Tween20 for 30 min. at RT on the shaker. Blocking solution was discarded and membranes were incubated with Borealin Fabs as primary detection reagents at concentration 5-10 µg/ml, in blocking buffer at 4 C O/N on the shaker. Membranes were washed 3 times with TBS-T and incubated with secondary anti-human FAB′2 specific HRP-conjugated IgG (diluted 1:10,000 in blocking buffer) for 45 minutes at RT, shaking. Membranes were washed again 3× with TBS-T, developed with ECL chemiluminescent substrate and visualized with the Biorad imaging instrument (FIG. 10).

[2] = molecular target: T3, Borealin N-terminal domain (20-88) (human, UniProt Q53HL2 20-88, biotinylated on the Avi-tag (co-expression with BirA)); test: as above
T3 construct: range 20-88; The construct carries His- and Avi-tags; Expressed in E. coli; Immobilised via neutravidin (ELISA) or His-tag/NTA chip (SPR); also called Bor-N
T3 sequence (looked up): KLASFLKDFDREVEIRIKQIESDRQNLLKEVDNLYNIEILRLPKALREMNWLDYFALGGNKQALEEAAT
Procedure: as §2, §3

INC-N = molecular target: T4, INC-N; test: as above
T4 construct: Specificity lane in the Western blots; also called INCENP-N (N-term); Inc: 1-58
T4 chain: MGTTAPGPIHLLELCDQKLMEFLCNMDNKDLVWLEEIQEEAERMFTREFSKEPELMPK
Procedure: as §2, §3

[3] = molecular target: T3, Borealin N-terminal domain (20-88); test: single-point Fab ELISA, 50 nM biotinylated target on neutravidin, 200 nM Fab, protein L-HRP [panel A]
Procedure: (§4) To rapidly reconfirm the binding and specificity of the obtained Fabs after reformatting into the expression vectors single-point Fab ELISA was performed (FIG. 2). Briefly, 50 nM Avi-tagged targets were immobilized on the prepared NAV-coated and blocked with 0.5% BSA in PBS 96-well ELISA plates. The target coated plates were washed with appropriate buffer (TBST or PBST) and were incubated with 200 nM Fab for 20 minutes and then washed. The washed plates were incubated with protein L conjugated with HRP (1:5000 diluted in TBST) for 30 minutes. Plates were washed and the reaction was developed using the TMB chromogenic substrate (Thermofisher) and subsequently quenched with 1M HCl. Absorbance was read at 450 nm on Epoch plate reader.

[4] = molecular target: T1, Borealin C-terminal domain (207-280); test: SPR, His-tagged target on NTA chip, 2-fold dilutions of the Fab injected, 1:1 Langmuir fit [panel B, middle]
Procedure: as §1

[5] = molecular target: T1, Borealin C-terminal domain (207-280); test: single-point Fab ELISA, 50 nM biotinylated target on neutravidin, protein L-HRP [panel B]
Procedure: as §4

[6] = molecular target: T3, Borealin N-terminal domain (20-88); test: single-point Fab ELISA, 50 nM biotinylated target on neutravidin, protein L-HRP [panel A]
Procedure: as §4

[7] = molecular target: T1, Borealin C-terminal domain (207-280); test: Western blot of recombinant CPC domains, Fab as primary reagent, anti-human F(ab')2 IgG-HRP [panel A]
Procedure: as §2, §3

[8] = molecular target: T3, Borealin N-terminal domain (20-88); test: SPR, His-tagged target on NTA chip, 2-fold dilutions of the Fab injected, 1:1 Langmuir fit [panel A]
Procedure: as §1

[9] = molecular target: T1, Borealin C-terminal domain (207-280); test: SPR, His-tagged target on NTA chip, 2-fold dilutions of the Fab injected, 1:1 Langmuir fit [panel B, bottom]
Procedure: as §1

B1: BOR-C-56 (Fab, V domains shown)
VH: EVQLVESGGGLVQPGGSLRLSCAASGFNISSSSIHWVRQAPGKGLEWVAYISSYSGSTYYADSVKGRFTISADTSKNTAYLQMNSLRAEDTAVYYCARYYHSPLWYYSYSGMDYWGQGTLVTVSS
VL: DIQMTQSPSSLSASVGDRVTITCRASQSVSSAVAWYQQKPGKAPKLLIYSASSLYSGVPSRFSGSRSGTDFTLTISSLQPEDFATYYCQQDYSWSPITFGQGTKVEIKR
notes: also called BOR-C-56 Fab
Q: How did the Kd [1] turn out when B1 was run?
A: The Kd was 11.6 nM.

Q: Does B1 bind (Sur-N)?
A: Result: no binding (tested: 5-10 ug/ml (the text prints 'lg/ml'))

Q: Does B1 bind [2]?
A: Result: no binding (tested: 5-10 ug/ml (the text prints 'lg/ml'))

Q: Does B1 bind (INC-N)?
A: Result: no binding (tested: 5-10 ug/ml (the text prints 'lg/ml'))

B2: BOR-N-51 (Fab, V domains shown)
VH: EVQLVESGGGLVQPGGSLRLSCAASGFNVYSYSIHWVRQAPGKGLEWVASIYSSYSYTSYADSVKGRFTISADTSKNTAYLQMNSLRAEDTAVYYCARKYHFKPTYWGAMDYWGQGTLVTVSS
VL: B1 VL with D91S, Y92S, S93L, W94Y, S95Y, I97L
notes: also called BOR-N-51 Fab
Q: Does B2 bind [3]?
A: Result: binds

B3: BOR-C-61 (Fab, V domains shown)
VH: EVQLVESGGGLVQPGGSLRLSCAASGFNFYSSYIHWVRQAPGKGLEWVASISSSSGSTSYADSVKGRFTISADTSKNTAYLQMNSLRAEDTAVYYCARRSGGGLDYWGQGTLVTVSS
VL: DIQMTQSPSSLSASVGDRVTITCRASQSVSSAVAWYQQKPGKAPKLLIYSASSLYSGVPSRFSGSRSGTDFTLTISSLQPEDFATYYCQQSSSSLITFGQGTKVEIKR
notes: also called BOR-C-61 Fab
Q: Which Kd [4] does the source give for B3 here?
A: The Kd was 8.5 nM.

B4: BOR-C-58 (Fab, V domains shown)
VH: EVQLVESGGGLVQPGGSLRLSCAASGFNVSSYSIHWVRQAPGKGLEWVASISPYYGYTSYADSVKGRFTISADTSKNTAYLQMNSLRAEDTAVYYCARHYYYGFSWFSSGYAMDYWGQGTLVTVSS
VL: B3 VL with S91G, L95P
notes: also called BOR-C-58 Fab
Q: Does B4 bind [5]?
A: Result: no binding (tested: 200 nM)

B5: BOR-N-65 (Fab, V domains shown)
VH: EVQLVESGGGLVQPGGSLRLSCAASGFNFSSSSIHWVRQAPGKGLEWVASISSSSGSTSYADSVKGRFTISADTSKNTAYLQMNSLRAEDTAVYYCARESSQTKKYWYWVVQWYTAMDYWGQGTLVTVSS
VL: B3 VL with S91Y, S93Q, S94W
notes: also called BOR-N-65 Fab
Q: Does B5 bind [6]?
A: Result: no binding (tested: 200 nM)

B6: BOR-N-49 (Fab, V domains shown)
VH: EVQLVESGGGLVQPGGSLRLSCAASGFNVSSYSIHWVRQAPGKGLEWVASIYSSSSSTYYADSVKGRFTISADTSKNTAYLQMNSLRAEDTAVYYCARRYYHYRYPLFWGWYGMDYWGQGTLVTVSS
VL: B3 VL with S92F, S93W, S94W, L95P
notes: also called BOR-N-49 Fab
Q: Does B6 bind [3]?
A: Result: binds

B7: BOR-N-48 (Fab, V domains shown)
VH: EVQLVESGGGLVQPGGSLRLSCAASGFNFSYSSIHWVRQAPGKGLEWVASIYPYSGSTYYADSVKGRFTISADTSKNTAYLQMNSLRAEDTAVYYCARKQVSGWWWYYGFDYWGQGTLVTVSS
VL: B3 VL with S92Y, S93W, S94W, L95P
notes: also called BOR-N-48 Fab
Q: Does B7 bind [7]?
A: Result: no binding (tested: 5-10 ug/ml (the text prints 'lg/ml'))

Q: And the Kd [8]?
A: Its Kd is 0.4 nM.

B8: BOR-N-50 (Fab, V domains shown)
VH: EVQLVESGGGLVQPGGSLRLSCAASGFNVYSYSIHWVRQAPGKGLEWVASIYSYSGYTYYADSVKGRFTISADTSKNTAYLQMNSLRAEDTAVYYCARSTYPHVYLYFGLDYWGQGTLVTVSS
VL: B3 VL with S92Y, S93Y, S94W, L95P, I96V
notes: also called BOR-N-50 Fab
Q: Does B8 bind [3]?
A: Result: binds

B9: BOR-C-64 (Fab, V domains shown)
VH: EVQLVESGGGLVQPGGSLRLSCAASGFNVYYSSIHWVRQAPGKGLEWVASISSYYGSTYYADSVKGRFTISADTSKNTAYLQMNSLRAEDTAVYYCARWKWVAMDYWGQGTLVTVSS
VL: B3 VL with S91D, S92L, S93F, S94M, L95P
notes: also called BOR-C-64 Fab
Q: For B9, which Kd [9] is on record?
A: Its Kd is 0.6 nM.
